For series [1], the target named is T1, TktA variant with HRV protease cleavage motif inserted after amino acid 635.
T1 chain: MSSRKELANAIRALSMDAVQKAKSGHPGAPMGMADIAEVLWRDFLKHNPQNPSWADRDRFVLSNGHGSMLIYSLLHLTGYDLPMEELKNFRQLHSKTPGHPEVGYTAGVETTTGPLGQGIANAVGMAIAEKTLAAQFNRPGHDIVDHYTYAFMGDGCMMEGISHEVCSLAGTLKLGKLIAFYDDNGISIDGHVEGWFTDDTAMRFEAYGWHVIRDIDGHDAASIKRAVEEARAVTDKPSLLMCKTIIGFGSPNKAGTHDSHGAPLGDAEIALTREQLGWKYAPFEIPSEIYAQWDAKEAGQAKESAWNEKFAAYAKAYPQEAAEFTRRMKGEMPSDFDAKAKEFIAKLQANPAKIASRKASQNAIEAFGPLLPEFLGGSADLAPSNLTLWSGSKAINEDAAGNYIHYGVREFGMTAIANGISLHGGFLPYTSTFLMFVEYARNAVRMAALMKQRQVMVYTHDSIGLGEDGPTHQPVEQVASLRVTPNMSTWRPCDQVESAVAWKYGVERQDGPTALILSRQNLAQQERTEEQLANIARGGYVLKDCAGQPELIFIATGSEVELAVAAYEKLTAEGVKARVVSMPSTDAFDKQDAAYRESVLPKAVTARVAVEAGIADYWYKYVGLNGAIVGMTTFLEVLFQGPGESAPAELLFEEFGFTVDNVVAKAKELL

The target of series [2] is T2, TktA variant with HRV protease cleavage motif inserted after amino acid 636.
T2 chain: T1 chain with L636G, E637L, V638E, L639V, F640L, Q641F, G642Q, P643G, G644P

Series [3] addresses T3, TktA variant with HRV protease cleavage motif inserted after amino acid 638.
T3 chain: T1 chain with L636G, V638S, F640E, Q641V, G642L, P643F, G644Q, E645G, S646P

Series [4] deals with T4, TktA variant with HRV protease cleavage motif inserted after amino acid 637.
T4 chain: T1 chain with L636G, V638L, L639E, F640V, Q641L, G642F, P643Q, E645P

Series [5] addresses T5, wild-type TktA protein (transketolase A of Escherichia coli).
T5 chain: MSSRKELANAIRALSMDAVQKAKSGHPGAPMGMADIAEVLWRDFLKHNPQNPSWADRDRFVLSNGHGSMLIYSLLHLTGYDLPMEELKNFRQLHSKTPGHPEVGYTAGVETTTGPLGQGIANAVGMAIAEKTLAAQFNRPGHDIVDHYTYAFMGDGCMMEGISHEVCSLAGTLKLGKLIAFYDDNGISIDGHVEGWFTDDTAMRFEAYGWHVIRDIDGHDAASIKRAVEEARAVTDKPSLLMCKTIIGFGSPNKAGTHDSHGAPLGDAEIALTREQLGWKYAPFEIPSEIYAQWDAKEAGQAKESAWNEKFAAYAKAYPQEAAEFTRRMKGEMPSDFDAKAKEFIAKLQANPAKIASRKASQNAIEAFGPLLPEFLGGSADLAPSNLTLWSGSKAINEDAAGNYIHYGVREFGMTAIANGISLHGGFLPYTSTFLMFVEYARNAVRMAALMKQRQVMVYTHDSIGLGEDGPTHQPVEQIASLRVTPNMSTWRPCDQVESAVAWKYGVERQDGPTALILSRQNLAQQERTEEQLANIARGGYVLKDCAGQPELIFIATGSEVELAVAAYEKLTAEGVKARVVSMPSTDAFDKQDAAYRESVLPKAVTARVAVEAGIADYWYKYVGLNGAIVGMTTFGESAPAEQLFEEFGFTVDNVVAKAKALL

The target in series [6] is T6, TktA variant with HRV protease cleavage motif inserted after amino acid 640.
T6 chain: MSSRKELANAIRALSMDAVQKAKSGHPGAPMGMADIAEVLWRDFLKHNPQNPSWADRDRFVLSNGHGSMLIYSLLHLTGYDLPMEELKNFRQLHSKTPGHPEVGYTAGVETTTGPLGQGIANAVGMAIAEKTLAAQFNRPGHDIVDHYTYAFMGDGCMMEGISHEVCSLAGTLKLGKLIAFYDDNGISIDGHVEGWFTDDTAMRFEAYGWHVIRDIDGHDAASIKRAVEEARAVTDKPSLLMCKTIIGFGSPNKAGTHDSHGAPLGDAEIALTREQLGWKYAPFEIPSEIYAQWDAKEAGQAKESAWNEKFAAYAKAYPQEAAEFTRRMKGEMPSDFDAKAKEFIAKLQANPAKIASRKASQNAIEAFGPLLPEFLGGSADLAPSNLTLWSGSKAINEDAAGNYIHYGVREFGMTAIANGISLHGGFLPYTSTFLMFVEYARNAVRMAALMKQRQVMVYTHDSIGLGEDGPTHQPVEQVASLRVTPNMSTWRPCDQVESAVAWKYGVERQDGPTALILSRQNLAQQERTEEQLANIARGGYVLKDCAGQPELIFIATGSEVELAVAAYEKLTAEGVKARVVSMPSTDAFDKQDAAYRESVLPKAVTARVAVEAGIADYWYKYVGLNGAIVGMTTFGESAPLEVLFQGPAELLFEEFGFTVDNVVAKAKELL

In series [7] the target is Pgi-HRV-I526 (Pgi with HRV 3C recognition sequence inserted after amino acid 526).

Changes are numbered by the printed parent chain.

B1: tobacco etch virus (TEV) protease (protein)
chain: GESLFKGPRDYNPISSTICHLTNESDGHTTSLYGIGFGPFIITNKHLFRRNNGTLLVQSLHGVFKVKNTTTLQQHLIDGRDMIIIRMPKDFPPFPQKLKFREPQREERICLVTTNFQTKSMSSMVSDTSCTFPSSDGIFWKHWIQTKDGQCGSPLVSTRDGFIVGIHSASNFTNTNNYFTSVPKNFMELLTNQEAQQWVSGWRLNADSVLWGGHKVFMSKPEEPFQPVKEATQLMNELVYSQ
With B1, the growth rate in minimal glucose medium, TEV protease control +inducer (2% arabinose, pGLC219); -inducer value 0.52 in series [1] is 0.52. In series [2], this protein had a growth rate in minimal glucose medium, TEV protease control +inducer (2% arabinose, pGLC219); -inducer value 0.39 of 0.42. In series [3], this protein gave a growth rate in minimal glucose medium, TEV protease control +inducer (2% arabinose, pGLC219); -inducer value 0.18 of 0.18. The growth rate in minimal glucose medium, TEV protease control +inducer (2% arabinose, pGLC219); -inducer value 0.46 in series [4] was found to be 0.46. For the same protein, the growth rate in minimal glucose medium, TEV protease control +inducer (2% arabinose, pGLC219); -inducer value 0.55 in series [5] stood at 0.53. This protein also had a growth rate in minimal glucose medium, TEV protease control +inducer (2% arabinose, pGLC219); -inducer value 0.48 in series [6] of 0.52.

B2: HRV 3C protease (codon-optimized for expression in E. coli), cytoplasmic (protein)
chain: MGPEEEFGMSLIKHNSCVITTENGKFTGLGVYDRFVVVPTHADPGKEIQVDGITTKVIDSYDLYNKNGIKLEITVLKLDRNEKFRDIRRYIPNNEDDYPNCNLALLANQPEPTIINVGDVVSYGNILLSGNQTARMLKYSYPTKSGYCGGVLYKIGQVLGIHVGGNGRDGFSAMLLRSYFTDVQ
In turn, B2 showed a growth rate in minimal glucose medium, HRV protease +inducer (2% arabinose, pGLC217); -inducer value 0.58 in series [1] of 0.47. The protein also registered a growth rate in minimal glucose medium, HRV protease +inducer (2% arabinose, pGLC217); -inducer value 0.43 in series [2] of 0.17. The growth rate in minimal glucose medium, HRV protease +inducer (2% arabinose, pGLC217); -inducer value 0.13 in series [3] came to 0.08. The protein further had a Pgi activity in clarified lysate after 2 h IPTG induction of cytoplasmic HRV 3C protease (pGLC221, no OmpA leader); no-protease strain 1.3 (µmol/min/mg total protein) in series [7] of -0.01. The same protein gave a growth rate in minimal glucose medium, HRV protease +inducer (2% arabinose, pGLC217); -inducer value 0.40 in series [4] of 0.11. In series [5], this protein registered a growth rate in minimal glucose medium, HRV protease +inducer (2% arabinose, pGLC217); -inducer value 0.60 of 0.57. Further, the growth rate in minimal glucose medium, HRV protease +inducer (2% arabinose, pGLC217); -inducer value 0.55 in series [6] is 0.34.

B3: HRV 3C protease with an N-terminal OmpA leader sequence (periplasmic) (protein)
chain: GPEEEFGMSLIKHNSCVITTENGKFTGLGVYDRFVVVPTHADPGKEIQVDGITTKVIDSYDLYNKNGIKLEITVLKLDRNEKFRDIRRYIPNNEDDYPNCNLALLANQPEPTIINVGDVVSYGNILLSGNQTARMLKYSYPTKSGYCGGVLYKIGQVLGIHVGGNGRDGFSAMLLRSYFTDVQ
In series [7], B3 returned a Pgi activity in clarified lysate after 2 h IPTG induction of periplasmically sequestered HRV 3C protease (pGLC089, OmpA leader); no-protease strain 1.3 (µmol/min/mg total protein) of 0.01.

These data come from patent US20150037868.
